Test [1] addresses T1, human FcγRIIIA-F158 α subunit extracellular domain-6His-GST fusion (human, UniProt P08637 17-208).
T1 construct: also called FcγRIIIA-Phe158; not shown: glutathione S-transferase (GST)
As to the kind of experiment: ELISA, IgG:IgE hexamers on receptor-GST. For orientation: An ELISA detects its analyte on a solid surface through an enzyme-linked reagent.

Test [2] deals with T2, human FcγRIIB α subunit extracellular domain-6His-GST fusion (human, UniProt P31994 43-217).
T2 construct: not shown: glutathione S-transferase (GST)
T2 sequence: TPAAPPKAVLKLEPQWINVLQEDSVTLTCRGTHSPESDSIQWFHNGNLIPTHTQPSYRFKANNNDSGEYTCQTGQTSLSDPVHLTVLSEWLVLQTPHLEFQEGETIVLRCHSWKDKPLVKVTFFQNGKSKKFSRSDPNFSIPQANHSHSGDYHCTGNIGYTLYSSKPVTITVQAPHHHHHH
The experiment in a line: ELISA, IgG:IgE hexamers on receptor-GST.

The target in test [3] is T3, human FcγRIIA-R131 α subunit extracellular domain-6His-GST fusion (human, UniProt P12318 34-217).
T3 construct: also called FcγRIIA-Arg131; not shown: glutathione S-transferase (GST)
T3 sequence: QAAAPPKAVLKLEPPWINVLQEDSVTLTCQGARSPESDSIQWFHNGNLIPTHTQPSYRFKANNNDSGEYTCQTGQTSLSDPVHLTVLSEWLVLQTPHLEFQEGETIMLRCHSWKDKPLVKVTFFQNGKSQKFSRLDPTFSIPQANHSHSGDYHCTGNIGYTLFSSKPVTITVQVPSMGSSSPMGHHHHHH
The experiment in a line: ELISA, IgG:IgE hexamers on receptor-GST.

The target in test [4] is T4, human FcγRIIIA-V158 α subunit extracellular domain-His6-GST fusion (human, UniProt P08637 17-208).
T4 construct: ECD-6His-GST fusion made in 293 cells; also called FcγRIIIA-Val158; not shown: glutathione S transferase (GST)
T4 sequence (P08637 other isoform, or with tags, fused parts or gaps, form in doubt): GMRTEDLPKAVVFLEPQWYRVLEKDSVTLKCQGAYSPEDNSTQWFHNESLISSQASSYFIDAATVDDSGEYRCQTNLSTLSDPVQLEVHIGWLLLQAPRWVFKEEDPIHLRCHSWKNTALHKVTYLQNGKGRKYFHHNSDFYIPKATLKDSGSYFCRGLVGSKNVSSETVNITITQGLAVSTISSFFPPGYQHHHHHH
The experiment in a line: ELISA, IgG complex, receptor coated.

For test [5], the target named is T5, human FcγRIIA-R131 α subunit extracellular domain-His6-GST fusion (human, UniProt P12318 34-217).
T5 construct: ECD-6His-GST fusion made in 293 cells; also called FcγRIIA-Arg131; not shown: glutathione S transferase (GST)
T5 sequence: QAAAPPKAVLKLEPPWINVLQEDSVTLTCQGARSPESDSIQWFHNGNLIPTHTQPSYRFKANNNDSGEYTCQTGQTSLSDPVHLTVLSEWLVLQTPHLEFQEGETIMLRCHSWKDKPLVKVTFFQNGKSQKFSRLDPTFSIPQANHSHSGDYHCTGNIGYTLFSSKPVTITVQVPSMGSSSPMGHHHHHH
The experiment in a line: ELISA, IgG complex, receptor coated.

The target in test [6] is T6, human FcγRIIIA-F158 α subunit extracellular domain-His6-GST fusion (human, UniProt P08637 17-208).
T6 construct: ECD-6His-GST fusion made in 293 cells; also called FcγRIIIA-Phe158; not shown: glutathione S transferase (GST)
T6 sequence (P08637 other isoform, or with tags, fused parts or gaps, form in doubt): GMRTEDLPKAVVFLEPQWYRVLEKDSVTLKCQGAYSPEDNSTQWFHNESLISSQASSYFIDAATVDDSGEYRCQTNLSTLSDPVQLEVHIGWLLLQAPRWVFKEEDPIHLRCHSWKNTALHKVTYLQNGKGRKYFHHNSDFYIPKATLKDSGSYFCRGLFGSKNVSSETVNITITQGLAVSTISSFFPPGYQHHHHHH
As to the kind of experiment: ELISA, IgG complex, receptor coated.

Test [7] addresses T4, human FcγRIIIA-V158 α subunit …. The experiment in a line: ELISA, IgG monomer, receptor coated.

B1: E27 IgG1 variant E333(352)A/K334(353)A (antibody)
heavy: not shown
light: DIQLTQSPSSLSASVGDRVTITCRASKPVDGEGDSYLNWYQQKPGKAPKLLIYAASYLESGVPSRFSGSGSGTDFTLTISSLQPEDFATYYCQQSHEDPYTFGQGTKVEIKRTVAAPSVFIFPPSDEQLKSGTASVVCLLNNFYPREAKVQWKVDNALQSGNSQESVTEQDSKDSTYSLSSTLTLSKADYEKHKVYACEVTHQGLSSPVTKSFNRGEC
Consider B1, for which the “ratio to native IgG1” value stood at 1.3 in test [1], 0.63 in test [2] and 0.72 in test [3].

B2: anti-IgE E27 IgG1 variant K334(353)W (antibody)
heavy: not shown
light: DIQLTQSPSSLSASVGDRVTITCRASKPVDGEGDSYLNWYQQKPGKAPKLLIYAASYLESGVPSRFSGSGSGTDFTLTISSLQPEDFATYYCQQSHEDPYTFGQGTKVEIKRTVAAPSVFIFPPSDEQLKSGTASVVCLLNNFYPREAKVQWKVDNALQSGNSQESVTEQDSKDSTYSLSSTLTLSKADYEKHKVYACEVTHQGLSSPVTKSFNRGEC
notes: Fc variant of E27
For the molecule B2, the “ratio of binding, variant/native IgG1 (mean)” value in test [4] is 0.96 ratio; in test [5], 0.94 ratio; in test [6] it was 1.07 ratio; in test [7], 1.53 ratio.

B3: anti-IgE E27 IgG1 variant S298(317)N (antibody)
heavy: not shown
light: DIQLTQSPSSLSASVGDRVTITCRASKPVDGEGDSYLNWYQQKPGKAPKLLIYAASYLESGVPSRFSGSGSGTDFTLTISSLQPEDFATYYCQQSHEDPYTFGQGTKVEIKRTVAAPSVFIFPPSDEQLKSGTASVVCLLNNFYPREAKVQWKVDNALQSGNSQESVTEQDSKDSTYSLSSTLTLSKADYEKHKVYACEVTHQGLSSPVTKSFNRGEC
notes: Fc variant of E27; also called IG2 72; Ser298Asn
B3: the “ratio of binding, variant/native IgG1 (mean)” value in test [4] was found to be 0.66 ratio; in test [5], 0.08 ratio; in test [6], 0.06 ratio; in test [7], 0.17 ratio.

B4: anti-IgE E27 IgG1 variant S298(317)A (antibody)
heavy: not shown
light: DIQLTQSPSSLSASVGDRVTITCRASKPVDGEGDSYLNWYQQKPGKAPKLLIYAASYLESGVPSRFSGSGSGTDFTLTISSLQPEDFATYYCQQSHEDPYTFGQGTKVEIKRTVAAPSVFIFPPSDEQLKSGTASVVCLLNNFYPREAKVQWKVDNALQSGNSQESVTEQDSKDSTYSLSSTLTLSKADYEKHKVYACEVTHQGLSSPVTKSFNRGEC
notes: Fc variant of E27; also called IG2 36; G36
On to B4, for which the “ratio of binding, variant/native IgG1 (mean)” value was determined as 1.02 ratio in test [4], 0.4 ratio in test [5], 1.3 ratio in test [6] and 1.96 ratio in test [7].

B5: anti-IgE E27 IgG1 variant S298(317)G (antibody)
heavy: not shown
light: DIQLTQSPSSLSASVGDRVTITCRASKPVDGEGDSYLNWYQQKPGKAPKLLIYAASYLESGVPSRFSGSGSGTDFTLTISSLQPEDFATYYCQQSHEDPYTFGQGTKVEIKRTVAAPSVFIFPPSDEQLKSGTASVVCLLNNFYPREAKVQWKVDNALQSGNSQESVTEQDSKDSTYSLSSTLTLSKADYEKHKVYACEVTHQGLSSPVTKSFNRGEC
notes: Fc variant of E27; also called IG2 70
In the case of B5, the “ratio of binding, variant/native IgG1 (mean)” value in test [4] is 0.88 ratio; in test [5], 0.87 ratio; in test [6] it was 0.46 ratio; in test [7] it was 1.88 ratio.

B6: anti-IgE E27 IgG1 variant S298(317)L (antibody)
heavy: not shown
light: DIQLTQSPSSLSASVGDRVTITCRASKPVDGEGDSYLNWYQQKPGKAPKLLIYAASYLESGVPSRFSGSGSGTDFTLTISSLQPEDFATYYCQQSHEDPYTFGQGTKVEIKRTVAAPSVFIFPPSDEQLKSGTASVVCLLNNFYPREAKVQWKVDNALQSGNSQESVTEQDSKDSTYSLSSTLTLSKADYEKHKVYACEVTHQGLSSPVTKSFNRGEC
notes: Fc variant of E27
For B6, the “ratio of binding, variant/native IgG1 (mean)” value in test [4] is 0.83 ratio; in test [5], 1.14 ratio; in test [6] it was 0.34 ratio; in test [7], 0.67 ratio.

B7: anti-IgE E27 IgG1 variant K334(353)Y (antibody)
heavy: not shown
light: DIQLTQSPSSLSASVGDRVTITCRASKPVDGEGDSYLNWYQQKPGKAPKLLIYAASYLESGVPSRFSGSGSGTDFTLTISSLQPEDFATYYCQQSHEDPYTFGQGTKVEIKRTVAAPSVFIFPPSDEQLKSGTASVVCLLNNFYPREAKVQWKVDNALQSGNSQESVTEQDSKDSTYSLSSTLTLSKADYEKHKVYACEVTHQGLSSPVTKSFNRGEC
notes: Fc variant of E27
Turning to B7, the “ratio of binding, variant/native IgG1 (mean)” value in test [4] is 0.98 ratio; in test [5] it was 1.08 ratio; in test [6] it was 1.31 ratio; in test [7], 1.72 ratio.

B8: anti-IgE E27 IgG1 variant P331(350)A (antibody)
heavy: not shown
light: DIQLTQSPSSLSASVGDRVTITCRASKPVDGEGDSYLNWYQQKPGKAPKLLIYAASYLESGVPSRFSGSGSGTDFTLTISSLQPEDFATYYCQQSHEDPYTFGQGTKVEIKRTVAAPSVFIFPPSDEQLKSGTASVVCLLNNFYPREAKVQWKVDNALQSGNSQESVTEQDSKDSTYSLSSTLTLSKADYEKHKVYACEVTHQGLSSPVTKSFNRGEC
notes: Fc variant of E27; also called IG2 65; Pro331Ala
With B8, the “ratio of binding, variant/native IgG1 (mean)” value in test [4] came to 0.96 ratio; in test [5] it was 1.29 ratio; in test [6], 1.03 ratio; in test [7] it was 0.78 ratio.

B9: anti-IgE E27 IgG1 variant K334(353)S (antibody)
heavy: not shown
light: DIQLTQSPSSLSASVGDRVTITCRASKPVDGEGDSYLNWYQQKPGKAPKLLIYAASYLESGVPSRFSGSGSGTDFTLTISSLQPEDFATYYCQQSHEDPYTFGQGTKVEIKRTVAAPSVFIFPPSDEQLKSGTASVVCLLNNFYPREAKVQWKVDNALQSGNSQESVTEQDSKDSTYSLSSTLTLSKADYEKHKVYACEVTHQGLSSPVTKSFNRGEC
notes: Fc variant of E27
As for B9, the “ratio of binding, variant/native IgG1 (mean)” value in test [4] amounted to 1.25 ratio; in test [5], 1.01 ratio; in test [6], 1.19 ratio; in test [7], 1.82 ratio.

B10: anti-IgE E27 IgG1 variant S298(317)T (antibody)
heavy: not shown
light: DIQLTQSPSSLSASVGDRVTITCRASKPVDGEGDSYLNWYQQKPGKAPKLLIYAASYLESGVPSRFSGSGSGTDFTLTISSLQPEDFATYYCQQSHEDPYTFGQGTKVEIKRTVAAPSVFIFPPSDEQLKSGTASVVCLLNNFYPREAKVQWKVDNALQSGNSQESVTEQDSKDSTYSLSSTLTLSKADYEKHKVYACEVTHQGLSSPVTKSFNRGEC
notes: Fc variant of E27; also called IG2 71; Ser298Thr
Regarding B10, the “ratio of binding, variant/native IgG1 (mean)” value in test [4] came to 0.96 ratio; in test [5], 0.41 ratio; in test [6] it was 0.89 ratio; in test [7] it was 0.75 ratio.

B11: anti-IgE E27 IgG1 variant T256(269)A (antibody)
heavy: not shown
light: DIQLTQSPSSLSASVGDRVTITCRASKPVDGEGDSYLNWYQQKPGKAPKLLIYAASYLESGVPSRFSGSGSGTDFTLTISSLQPEDFATYYCQQSHEDPYTFGQGTKVEIKRTVAAPSVFIFPPSDEQLKSGTASVVCLLNNFYPREAKVQWKVDNALQSGNSQESVTEQDSKDSTYSLSSTLTLSKADYEKHKVYACEVTHQGLSSPVTKSFNRGEC
notes: Fc variant of E27; also called IG2 11; Thr256Ala
Consider B11, for which the “ratio of binding, variant/native IgG1 (mean)” value was determined as 0.97 ratio in test [4], 1.41 ratio in test [5], 1.32 ratio in test [6] and 1.2 ratio in test [7].

B12: anti-IgE E27 IgG1 variant K334(353)V (antibody)
heavy: not shown
light: DIQLTQSPSSLSASVGDRVTITCRASKPVDGEGDSYLNWYQQKPGKAPKLLIYAASYLESGVPSRFSGSGSGTDFTLTISSLQPEDFATYYCQQSHEDPYTFGQGTKVEIKRTVAAPSVFIFPPSDEQLKSGTASVVCLLNNFYPREAKVQWKVDNALQSGNSQESVTEQDSKDSTYSLSSTLTLSKADYEKHKVYACEVTHQGLSSPVTKSFNRGEC
notes: Fc variant of E27; also called IG2 220
For B12, the “ratio of binding, variant/native IgG1 (mean)” value in test [4] is 1 ratio; in test [5], 1.13 ratio; in test [6], 1.34 ratio; in test [7], 2.89 ratio.

B13: anti-IgE E27 IgG1 variant T256(269)N (antibody)
heavy: not shown
light: DIQLTQSPSSLSASVGDRVTITCRASKPVDGEGDSYLNWYQQKPGKAPKLLIYAASYLESGVPSRFSGSGSGTDFTLTISSLQPEDFATYYCQQSHEDPYTFGQGTKVEIKRTVAAPSVFIFPPSDEQLKSGTASVVCLLNNFYPREAKVQWKVDNALQSGNSQESVTEQDSKDSTYSLSSTLTLSKADYEKHKVYACEVTHQGLSSPVTKSFNRGEC
notes: Fc variant of E27
In the case of B13, the “ratio of binding, variant/native IgG1 (mean)” value in test [4] amounted to 0.95 ratio; in test [5], 1.03 ratio; in test [6], 1.13 ratio; in test [7], 0.88 ratio.

The record behind these values is patent publication US7183387 (Genentech, dated 2007).
